Results reported in publication PMC8955606 (Toxins, 2022).

How the values were obtained:
Conditions in all cases: both partners purified
[1] = biological target: Protective Antigen PA83 (83 kDa) of Bacillus anthracis (Bacillus anthracis, strain of …, UniProt P13423); test: SPR
[2] = biological target: T1, PA83 peptide PLYISNPNY (domain IV) (Bacillus anthracis); test: peptide or protein array
T1 chain: PLYISNPNY

[3] = biological target: T2, PA83 region YTVDVKNKRTFLSPWI (domain I) (Bacillus anthracis); test: peptide or protein array
T2 chain: YTVDVKNKRTFLSPWI

Protective Antigen PA83 (83 kDa) of Bacillus anthracis, sequence (P13423 whole entry, looked up): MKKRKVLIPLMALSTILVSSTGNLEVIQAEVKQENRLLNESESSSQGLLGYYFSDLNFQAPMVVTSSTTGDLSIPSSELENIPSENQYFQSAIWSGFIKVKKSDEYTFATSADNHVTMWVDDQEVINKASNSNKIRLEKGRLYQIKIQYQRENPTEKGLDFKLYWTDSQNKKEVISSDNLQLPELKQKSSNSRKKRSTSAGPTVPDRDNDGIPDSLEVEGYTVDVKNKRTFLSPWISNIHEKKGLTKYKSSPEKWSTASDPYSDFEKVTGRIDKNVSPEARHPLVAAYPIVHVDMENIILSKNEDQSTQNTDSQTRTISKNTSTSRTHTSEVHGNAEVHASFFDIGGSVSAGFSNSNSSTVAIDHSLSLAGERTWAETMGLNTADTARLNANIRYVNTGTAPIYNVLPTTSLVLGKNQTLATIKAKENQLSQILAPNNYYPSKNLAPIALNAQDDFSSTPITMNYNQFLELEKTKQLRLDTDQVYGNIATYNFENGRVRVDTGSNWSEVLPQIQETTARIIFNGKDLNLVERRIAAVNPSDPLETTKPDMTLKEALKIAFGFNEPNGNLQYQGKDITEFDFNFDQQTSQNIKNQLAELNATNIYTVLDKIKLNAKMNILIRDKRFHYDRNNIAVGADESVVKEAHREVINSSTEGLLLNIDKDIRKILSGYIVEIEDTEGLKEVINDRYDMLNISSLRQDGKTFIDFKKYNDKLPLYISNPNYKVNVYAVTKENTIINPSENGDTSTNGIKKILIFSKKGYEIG

Row | Binder | Kd [1] | binding result [2] | binding result [3]
1 | 35PA83 6.20 G1 (antibody, V domains shown, also called mutant that combined the 10 selected mutations; source: expressed and purified by Proteogenix) VH: QVQLQESGPGLVKPSETLSLTCTVSGDSISGGYYWGWIRQSPGKGLEWIGLIYGSTADTRYNPSLKGRVTISKDTSKNQFSLKLSSVTAADTAVYYCARSGYNFWSGEYYGLDSWGQGTLVTVSS VL: AIQLTQSPSSLSAYVGDRVTITCHASQGINSWLAWYQQKPGKAPKLLIYKASSLLSGVPSRFSGSGSGTDFTLTISSLQSEDFATYYCLQYDSAPLAFGPGTKLEIK | 0.316 nM | – | –
2 | 35PA83 6.20 IgG1 (GMP batch) (antibody, V domains shown, also called IgG 35PA83 6.20; 35PA83 6.20 mAb; source: rat YB2/0-E cell line (LFB), GMP conditions) VH: QVQLQESGPGLLKPSETLSLTCAVSGDSISGGYYWSWIRQSPGKGLEWIGLIYGSTADTRYNPSLKGRVTISKDTSKNQLSLQLRSVTAADTAVYYCARSGYNFWSGEYYGLDSWGQGAVVTVSS VL: AIQLTQSPSSLSAYVGDKVTITCHASQGINSWLAWYQQKPGKAPKLLIYKASSLLSGVPSRFSGSGSGTDYTLTISSLQSEDFASYYCLQYDSAPLAFGPGTKLDIK | – | binds | binds
3 | 35PA83 6.20 (parental antibody of the super-humanization) (antibody, V domains shown, also called the parental antibody; 35PA80 6.20) VH: QVQLQESGPGLLKPSETLSLTCAVSGDSISGGYYWSWIRQSPGKGLEWIGLIYGSTADTRYNPSLKGRVTISKDTSKNQLSLQLRSVTAADTAVYYCARSGYNFWSGEYYGLDSWGQGAVVTVSS VL: AIQLTQSPSSLSAYVGDKVTITCHASQGINSWLAWYQQKPGKAPKLLIYKASSLLSGVPSRFSGSGSGTDYTLTISSLQSEDFASYYCLQYDSAPLAFGPGTKLDIK | 0.18 nM | – | –
